Test [1] deals with T1, Human nectin-4 ECD-6His (TNT-175) (human, UniProt Q96NY8 32-349).
T1 construct: the entry holds the extracellular domain with the C-terminal 6His tag
T1 sequence: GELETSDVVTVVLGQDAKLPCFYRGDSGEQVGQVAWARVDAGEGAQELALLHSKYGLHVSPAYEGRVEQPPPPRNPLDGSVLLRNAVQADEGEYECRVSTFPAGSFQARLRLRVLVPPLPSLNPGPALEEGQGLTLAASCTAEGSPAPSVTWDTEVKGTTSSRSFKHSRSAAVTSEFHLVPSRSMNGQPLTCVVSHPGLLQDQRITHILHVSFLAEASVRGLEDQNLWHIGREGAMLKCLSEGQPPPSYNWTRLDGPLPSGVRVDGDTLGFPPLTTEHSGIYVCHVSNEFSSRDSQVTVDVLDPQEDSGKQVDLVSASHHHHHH
The test is described as follows: competition ELISA; nectin-4 ECD premixed with TNT210, captured by the coat antibody; % of signal without premix antibody. Put shortly: (§1)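 Anti-mouse IgG coat 1 mg/mL, 4° C o/n; nectin-4/antibody premix 1 h; anti-6×His HRP 1:4,000, 1 h RT; ABTS 20 min. Readout O.D. minus background, % of nectin-4-alone signal at lowest dilution.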
A general note: In an ELISA, binding on a coated surface is turned into a signal by an enzyme label.

The target of test [2] is T1, Human nectin-4 ECD-6His (TNT-175). Briefly: competition ELISA; nectin-4 ECD premixed with TNT212, captured by the coat antibody; % of signal without premix antibody. Put shortly: as §1
For test [3] the target is unchanged. The test is described as follows: competition ELISA; nectin-4 ECD premixed with TNT206, captured by the coat antibody; % of signal without premix antibody. The essentials: as §1
Test [4] shares this target. Briefly: competition ELISA; nectin-4 ECD premixed with TNT205, captured by the coat antibody; % of signal without premix antibody. The essentials:
as §1

Test [5] has the same target. Briefly: competition ELISA; nectin-4 ECD premixed with TNT201, captured by the coat antibody; % of signal without premix antibody. The essentials:
as §1

The target is the same in test [6]. Briefly: competition ELISA; nectin-4 ECD premixed with TNT207, captured by the coat antibody; % of signal without premix antibody. The essentials: as §1
The target is the same in test [7]. The test is described as follows: SPR ProteOn, mAb on protein A. The protocol:
Initial testing of binding of nectin-4 antibodies to nectin-4. […] Biotinylated protein A (15 μg/mL) was immobilized to the surface of an NLC chip. 30 nM of purified mAb supernatant was diluted in PBS-T and captured over the protein A surface. Serial dilutions of human nectin-4 were injected over the mAb-coated chips, and binding kinetics were determined. Chips were regenerated using 4:1 v/v of IgG elution butter/4M NaCl.

Test [8] has the same target. Briefly: competition ELISA; nectin-4 ECD premixed with TNT204, captured by the coat antibody; % of signal without premix antibody. Put shortly:
as §1

The target is the same in test [9]. The test is described as follows: competition ELISA; nectin-4 ECD premixed with TNT211, captured by the coat antibody; % of signal without premix antibody. Put shortly:
as §1

The next test has as its target T2, human nectin-4 on cells (human, UniProt Q96NY8 32-510).
T2 construct: whole, on cells; also called PVRL4
T2 sequence (looked up): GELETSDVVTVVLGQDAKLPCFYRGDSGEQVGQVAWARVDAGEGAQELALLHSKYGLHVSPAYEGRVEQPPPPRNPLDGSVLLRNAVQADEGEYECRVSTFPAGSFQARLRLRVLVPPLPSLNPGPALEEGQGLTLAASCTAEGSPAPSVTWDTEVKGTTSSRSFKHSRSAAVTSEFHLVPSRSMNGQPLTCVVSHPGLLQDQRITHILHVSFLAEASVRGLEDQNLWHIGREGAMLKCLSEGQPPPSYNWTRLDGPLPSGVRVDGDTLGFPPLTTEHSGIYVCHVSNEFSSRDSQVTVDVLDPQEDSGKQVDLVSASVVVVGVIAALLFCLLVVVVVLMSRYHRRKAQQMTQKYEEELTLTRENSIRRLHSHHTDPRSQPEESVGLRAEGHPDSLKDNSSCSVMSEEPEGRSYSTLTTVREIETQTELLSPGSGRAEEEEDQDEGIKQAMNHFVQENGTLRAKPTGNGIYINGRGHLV
Briefly: flow cytometry MFI, MNK74 (nectin-4 positive) over AGS (negative). Background: Flow cytometry measures light scatter and fluorescence of single cells or particles in a stream.

In test [10] the target is T1, Human nectin-4 ECD-6His (TNT-175). Briefly: competition ELISA; nectin-4 ECD premixed with TNT202, captured by the coat antibody; % of signal without premix antibody. Put shortly: as §1
Test [11] shares this target. The test is described as follows: competition ELISA; nectin-4 ECD premixed with TNT209, captured by the coat antibody; % of signal without premix antibody. The essentials:
as §1

Test [12] has the same target. Briefly: competition ELISA; nectin-4 ECD premixed with TNT208, captured by the coat antibody; % of signal without premix antibody. The essentials:
as §1

The target is the same in test [13]. The test is described as follows: competition ELISA; nectin-4 ECD premixed with TNT203, captured by the coat antibody; % of signal without premix antibody. The essentials: as §1

B1: TNT-198 (antibody, mouse IgG2a, kappa)
heavy: EVQLVQSGAEVKKPGSSVKVSCKASGGTFSSYAISWVRQAPGQGLEWMGWINPNSGGTNYAQKFQGRVTMTRDTSTSTAYMELSSLRSEDTAVYYCATGYYGDLYYFDYWGQGTLVTVSSAKTTAPSVYPLAPVCGDTTGSSVTLGCLVKGYFPEPVTLTWNSGSLSSGVHTFPAVLQSDLYTLSSSVTVTSSTWPSQSITCNVAHPASSTKVDKKIEPRGPTIKPCPPCKCPAPNLLGGPSVFIFPPKIKDVLMISLSPIVTCVVVDVSEDDPDVQISWFVNNVEVHTAQTQTHREDYNSTLRVVSALPIQHQDWMSGKEFKCKVNNKDLPAPIERTISKPKGSVRAPQVYVLPPPEEEMTKKQVTLTCMVTDFMPEDIYVEWTNNGKTELNYKNTEPVLDSDGSYFMYSKLRVEKKNWVERNSYSCSVVHEGLHNHHTTKSFSRTPGRPQGFGPP
light: DIVMTQSPSSLSASVGDRVTITCRASQGISNYLAWYQQKPGKVPKLLIYAASTLQSGVPSRFSGSGSGTEFTLAISSLQPEDLATYYCQQLNSHPITFGQGTRLEIKRADAAPTVSIFPPSSEQLTSGGASVVCFLNNFYPKDINVKWKIDGSERQNGVLNSWTDQDSKDSTYSMSSTLTLTKDEYERHNSYTCEATHKTSTSPIVKSFNRNEC
For the molecule B1, the “% of Positive” value in [1] was 0.8%; in [2], 1.9%; in test [3], 5.4%; in [4], 56.9%; in [5] it was 0.9%; in [6], 1%. The “% of Positive” value in test [8] was found to be 2.2%; in [9], 19.5%; in test [10], 2.5%; in [11], 26%; in test [12], 2.1%; in test [13], 29.8%. In test [7], this molecule gave a dissociation constant (Kd) of 20.2 nM. Further, in test [7], the koff is 0.00138 s⁻¹. This molecule also showed an on-rate constant (kon) in test [7] of 68400 M⁻¹ s⁻¹. In addition, in the test with human nectin-4 on cells, the “Fold-change of binding to MNK74 compared to control AGS” value (“Fold-change of binding to MNK74” below) was determined as 5.9 fold.

B2: TNT-189 (antibody, mouse IgG2a, kappa)
heavy: EVQLVQSGAEVKKPGSSVKVSCKASGGTFSSYAISWVRQAPGQGLEWMGGIIPIFGTANYAQKFQGRVTITADESTSTAYMELSSLRSEDTAVYYCARGYSSSWYEPYYFDYWGQGTLVTVSSAKTTAPSVYPLAPVCGDTTGSSVTLGCLVKGYFPEPVTLTWNSGSLSSGVHTFPAVLQSDLYTLSSSVTVTSSTWPSQSITCNVAHPASSTKVDKKIEPRGPTIKPCPPCKCPAPNLLGGPSVFIFPPKIKDVLMISLSPIVTCVVVDVSEDDPDVQISWFVNNVEVHTAQTQTHREDYNSTLRVVSALPIQHQDWMSGKEFKCKVNNKDLPAPIERTISKPKGSVRAPQVYVLPPPEEEMTKKQVTLTCMVTDFMPEDIYVEWTNNGKTELNYKNTEPVLDSDGSYFMYSKLRVEKKNWVERNSYSCSVVHEGLHNHHTTKSFSRTPGRPQGFGPP
light: DIQLTQSPSSLSASVGDRVTITCRASQGISNYLAWYQQKPGKAPKLLIYAASTLQSGVPSRFSGSGSGTDFTLTISSLQPEDFATYYCQQSYSTPYTFGQGTKLEIKRADAAPTVSIFPPSSEQLTSGGASVVCFLNNFYPKDINVKWKIDGSERQNGVLNSWTDQDSKDSTYSMSSTLTLTKDEYERHNSYTCEATHKTSTSPIVKSFNRNEC
Turning to B2, the “% of Positive” value in [1] came to 2.7%; in test [2], 3.1%; in [3] it was 10.5%; in test [4], 44.4%; in [5], 1%; in [6], 2.4%. Moreover, the “% of Positive” value in test [8] worked out at 3.9%; in test [9], 27%; in test [10] it was 4.3%; in test [11], 26.7%; in test [12], 4.3%; in test [13], 29.3%. For the same molecule, binding in test [7] was characterised by a dissociation constant (Kd) of 5.09 nM. Further, in test [7], the koff is 0.00423 s⁻¹. The on-rate (kon) in test [7] is 832000 M⁻¹ s⁻¹. In the test with human nectin-4 on cells, the “Fold-change of binding to MNK74” value came to 5 fold.

B3: TNT-188 (antibody, mouse IgG2a, kappa)
heavy: EVQLVQSGAEVKKPGSSVKVSCKASGYTFTGYYMHWVRQAPGQGLEWMGWINPNSGGTNYAQKFQGRVTMTRDTSISTAYMELRSLRSDDTAVYYCARGSALHFFGVFDYWGQGTLVTVSSAKTTAPSVYPLAPVCGDTTGSSVTLGCLVKGYFPEPVTLTWNSGSLSSGVHTFPAVLQSDLYTLSSSVTVTSSTWPSQSITCNVAHPASSTKVDKKIEPRGPTIKPCPPCKCPAPNLLGGPSVFIFPPKIKDVLMISLSPIVTCVVVDVSEDDPDVQISWFVNNVEVHTAQTQTHREDYNSTLRVVSALPIQHQDWMSGKEFKCKVNNKDLPAPIERTISKPKGSVRAPQVYVLPPPEEEMTKKQVTLTCMVTDFMPEDIYVEWTNNGKTELNYKNTEPVLDSDGSYFMYSKLRVEKKNWVERNSYSCSVVHEGLHNHHTTKSFSRTPGRPQGFGPP
light: not shown
Consider B3, for which the “% of Positive” value was 8% in test [1]; 10.1% in [2]; 20% in [3]; 52.5% in [4]; 2.7% in [5]; 7.5% in test [6]. The “% of Positive” value in test [8] worked out at 9.2%; in test [9], 35.4%; in test [10] it was 12.8%; in test [11], 43.7%; in test [12], 12.7%; in [13], 40%. The Kd in test [7] is 7.03 nM. Also, in test [7], the off-rate constant (koff) is 0.00153 s⁻¹. The molecule also came in with a kon in test [7] of 217000 M⁻¹ s⁻¹. The “Fold-change of binding to MNK74” value with human nectin-4 on cells amounted to 4.3 fold.

As a reminder, the Kd is the concentration at which binding is half-saturated. The low end stands for higher affinity, the high end for lower affinity. The koff is the first-order rate constant of dissociation. In general, kon refers to a measure of how fast the partners come together.

Values taken from patent publication US20240382610A1 (TALLAC THERAPEUTICS, published 2024).
